Legend:
[1] = target: HLA-A*24:02 (human); assay: stable pHLA monomer refolding
[2] = target: T1, Jchain (joining chain) peptide on HLA-A*01:01 (human); assay: multimer staining
T1 peptide: YTAVVPLVY

[3] = target: T2, Jchain (joining chain) peptide on HLA-A*03:01 (human); assay: killing
T2 peptide: ISDPTSPLRTR

[4] = target: T3, Jchain (joining chain) peptide on HLA-A*11:01 (human); assay: NSG mice with established U266 + HLA-A11 + luciferase; 3-6x10^6 TCR-transduced CD8 T cells i.v.; bioluminescence; full-length, on cells
T3 peptide: ISDPTSPLRTR

[5] = target: T4, Jchain (joining chain) peptide on HLA-A*24:02 (human); assay: NSG mice with established U266 + HLA-A24 + luciferase; 3-6x10^6 TCR-transduced CD8 T cells i.v.; bioluminescence; full-length, on cells
T4 peptide: CYTAVVPLV

[6] = target: T5, HLA-A*02:01 (human); assay: stable pHLA monomer refolding
T5 construct: also called HLA-A2

[7] = target: HLA-B*40:01 (human); assay: stable pHLA monomer refolding
[8] = target: HLA-A*11:01 (human); assay: stable pHLA monomer refolding
[9] = target: T6, HLA-A*03:01 (human); assay: stable pHLA monomer refolding
T6 construct: also called HLA-A3

[10] = target: T7, HLA-A*01:01 (human); assay: stable pHLA monomer refolding
T7 construct: also called HLA-A1

[11] = target: T3, Jchain (joining chain) peptide on …; assay: killing
[12] = target: T2, Jchain (joining chain) peptide on …; assay: NSG mice with established wild-type HLA-A3pos U266 + luciferase; TCR-transduced CD8 T cells i.v.; bioluminescence; complete eradication in hIL-7/hIL-15 NSG mice (FIG. 15); full-length, on cells

CYTAVVPLV (also called CYT peptide) [Jchain derived peptide CYTAVVPLV (SEQ ID NO: 100)]: binds [1].

B1: TCR clone 13F6.6 (TCR, V domains shown)
Valpha: AQSVSQHNHHVILSEAASLELGCNYSYGGTVNLFWYVQYPGQHLQLLLKYFSGDPLVKGIKGFEAEFIKSKFSFNLRKPSVQWSDTAEYFCAASSGGYQKVTFGIGTKLQVIP
Vbeta: DVKVTQSSRYLVKRTGEKVFLECVQDMDHENMFWYRQDPGLGLRLIYFSYDVKMKEKGDIPEGYSVSREKKERFSLILESASTNQTSMYLCASSLRREVGDTQYFGPGTRLTVL
B1: recognises [2].

B2: TCR clone 16C7.9 (TCR, V domains shown)
Valpha: AQKITQTQPGMFVQEKEAVTLDCTYDTSDPSYGLFWYKQPSSGEMIFLIYQGSYDQQNATEGRYSLNFQKARKSANLVISASQLGDSAMYFCAMREDYTGGFKTIFGAGTRLFVKA
Vbeta: GAGVSQTPSNKVTEKGKYVELRCDPISGHTALYWYRQSLGQGPEFLIYFQGTGAADDSGLPNDRFFAVRPEGSVSTLKIQRTERGDSAVYLCASSLISGGNEQFFGPGTRLTVL
With B2 the binding result [3] was “no recognition” and the “fold lower tumor load than in CMV TCR control mice” value (from here on “fold lower tumor load than”) [4] was 190 fold.

B3: TCR clone 10H11.11 (TCR, V domains shown)
Valpha: EDQVTQSPEALRLQEGESSSLNCSYTVSGLRGLFWYRQDPGKGPEFLFTLYSAGEEKEKERLKATLTKKESFLHITAPKPEDSATYLCAVLSGGSYIPTFGRGTSLIVHP
Vbeta: DTGVSQDPRHKITKRGQNVTFRCDPISEHNRLYWYRQTLGQGPEFLTYFQNEAQLEKSRLLSDRFSAERPKGSFSTLEIQRTEQGDSAMYLCASSPLLRDSEEKLFFGSGTQLSVL
For B3, the “fold lower tumor load than” value [5] was 209 fold.

B4: TCR clone 4G8.8 (TCR, V domains shown)
Valpha: AQTVTQSQPEMSVQEAETVTLSCTYDTSENNYYLFWYKQPPSRQMILVIRQEAYKQQNATENRFSVNFQKAAKSFSLKISDSQLGDTAMYFCAFMKHVEYGNKLVFGAGTILRVKS
Vbeta: DAGITQSPRHKVTETGTPVTLRCHQTENHRYMYWYRQDPGHGLRLIHYSYGVKDTDKGEVSDGYSVSRSKTEDFLLTLESATSSQTSVYFCAARDSANEKLFFGSGTQLSVL
B4: recognises [2].

VLAVFIKAV (also called VLA2 peptide) [Jchain derived peptide VLAVFIKAV (SEQ ID NO: 104)]: binds [6].

GETKMVETAL (also called GET peptide) [Jchain derived peptide GETKMVETAL (SEQ ID NO: 107)]: binds [7].

RIIVPLNNR (also called RII peptide) [Jchain derived peptide RIIVPLNNR (SEQ ID NO: 106)]: binds [8].

VLAVFIKAVHV (also called VLA1 peptide) [Jchain derived peptide VLAVFIKAVHV (SEQ ID NO: 103)]: binds [6].

ISDPTSPLRTR (also called ISD peptide) [Jchain derived peptide ISDPTSPLRTR (SEQ ID NO: 101)]: binds [9]; binds [8].

YTAVVPLV [Jchain derived peptide YTAVVPLV (SEQ ID NO: 105)]: binds [6].

TAVVPLVY (also called TAV peptide) [Jchain derived peptide TAVVPLVY (SEQ ID NO: 102)]: binds [10].

B5: TCR clone 5C8.16 (TCR, V domains shown)
Valpha: AQSVTQLDSHVSVSEGTPVLLRCNYSSSYSPSLFWYVQHPNKGLQLLLKYTSAATLVKGINGFEAEFKKSETSFHLTKPSAHMSDAAEYFCVVKWADSWGKLQFGAGTQVVVTP
Vbeta: AAGVIQSPRHLIKEKRETATLKCYPIPRHDTVYWYQQGPGQDPQFLISFYEKMQSDKGSIPDRFSAQQFSDYHSELNMSSLELGDSALYFCASSLGTGNFYEQYFGPGTRLTVT
In the case of B5, the binding result [11] is reported as “no recognition” and the “fold lower tumor load than” value [12] is reported as 70 fold.

Source: US20250177443A1 (ACADEMISCH ZIEKENHUIS LEIDEN H O D N LUMC, published 2025)
